{"source": "patent US20200102387A1", "about": "(CELGENE, published 2020)", "key": {"[1]": {"biological_target": "T1, extracellular domain of SIRPα v1-DLN (e.g. SIRPα1) (human, UniProt P78324 31-373)", "T1 construct": "also called hSIRPα - ECD (v1)", "assay": "SPR Biacore T200, antibody on Protein A chip, 1:1 Langmuir fit"}, "[2]": {"biological_target": "T2, SIRPγ extracellular domain (human, UniProt Q9P1W8 29-360)", "T2 construct": "also called hSIRPγ - ECD", "T2 sequence (Q9P1W8 29-360 limits assumed)": "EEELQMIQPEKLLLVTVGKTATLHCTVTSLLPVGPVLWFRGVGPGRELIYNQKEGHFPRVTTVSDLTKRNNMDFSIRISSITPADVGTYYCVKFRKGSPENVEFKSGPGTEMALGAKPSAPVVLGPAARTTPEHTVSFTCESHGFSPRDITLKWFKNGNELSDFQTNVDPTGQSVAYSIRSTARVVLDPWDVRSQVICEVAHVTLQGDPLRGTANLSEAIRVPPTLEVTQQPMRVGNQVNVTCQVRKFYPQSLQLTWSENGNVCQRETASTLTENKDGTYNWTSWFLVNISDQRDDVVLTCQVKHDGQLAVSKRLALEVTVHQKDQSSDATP", "assay": "SPR Biacore T200, antibody on Protein A chip, 1:1 Langmuir fit"}, "[3]": {"biological_target": "T3, SIRPβ extracellular domain (human, UniProt O00241 30-371)", "T3 construct": "also called hSIRPβ - ECD", "T3 chain": "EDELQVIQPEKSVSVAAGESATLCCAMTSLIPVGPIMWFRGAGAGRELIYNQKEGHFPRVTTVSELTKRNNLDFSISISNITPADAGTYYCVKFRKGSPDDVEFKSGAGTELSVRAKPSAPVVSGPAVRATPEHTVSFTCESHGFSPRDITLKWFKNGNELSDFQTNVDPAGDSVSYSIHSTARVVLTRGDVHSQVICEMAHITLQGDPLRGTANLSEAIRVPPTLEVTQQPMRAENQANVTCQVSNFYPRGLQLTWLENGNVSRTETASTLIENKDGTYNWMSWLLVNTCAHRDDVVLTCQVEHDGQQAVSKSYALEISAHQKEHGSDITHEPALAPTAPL", "assay": "SPR Biacore T200, antibody on Protein A chip, 1:1 Langmuir fit"}, "[4]": {"biological_target": "T4, cynomolgus SIRPα on cells (cynomolgus, UniProt P78324 31-373 (human entry))", "T4 construct": "also called cyno SIRPα-CHO; Cyno SIRPα-CHO-K1; not shown: Transmembrane and cytoplasmic region of cynomolgus SIRPα", "T4 chain": "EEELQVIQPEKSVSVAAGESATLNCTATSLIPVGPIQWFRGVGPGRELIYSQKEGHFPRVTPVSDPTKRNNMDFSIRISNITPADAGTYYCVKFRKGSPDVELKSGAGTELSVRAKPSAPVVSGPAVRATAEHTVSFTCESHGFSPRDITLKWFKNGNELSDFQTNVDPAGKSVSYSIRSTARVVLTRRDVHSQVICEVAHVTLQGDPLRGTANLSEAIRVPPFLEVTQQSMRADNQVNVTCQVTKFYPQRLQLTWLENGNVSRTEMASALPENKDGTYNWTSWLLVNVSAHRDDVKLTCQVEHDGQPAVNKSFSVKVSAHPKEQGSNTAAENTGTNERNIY", "assay": "flow cytometry, cyno whole blood, gated CD14+ population, PE-conjugated antibody, one of two donors"}, "[5]": {"biological_target": "T4, cynomolgus SIRPα on cells", "assay": "flow cytometry of cynomolgus whole blood, gated CD14+ cells, Donor 1"}, "[6]": {"biological_target": "T4, cynomolgus SIRPα on cells", "assay": "flow cytometry of cynomolgus whole blood, gated CD14+ cells, Donor 2"}, "FcγR3A (CD16aV158)": {"biological_target": "T5, FcγR3A (CD16aV158) (human, UniProt P08637 17-254)", "T5 construct": "whole, on cells", "T5 sequence (P08637 17-254 F176V)": "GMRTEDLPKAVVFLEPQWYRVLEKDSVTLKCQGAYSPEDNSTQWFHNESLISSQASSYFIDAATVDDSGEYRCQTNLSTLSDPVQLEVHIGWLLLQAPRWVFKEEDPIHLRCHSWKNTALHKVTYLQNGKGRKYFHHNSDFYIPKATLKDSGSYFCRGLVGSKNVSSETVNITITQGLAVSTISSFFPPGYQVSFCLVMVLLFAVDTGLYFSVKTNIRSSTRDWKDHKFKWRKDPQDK", "assay": "cell binding, FcγR-engineered HEK293 cells"}, "FcγR1 (CD64)": {"biological_target": "T6, FcγR1 (CD64) (human, UniProt P12314 16-374)", "T6 construct": "whole, on cells", "T6 sequence (P12314 16-374)": "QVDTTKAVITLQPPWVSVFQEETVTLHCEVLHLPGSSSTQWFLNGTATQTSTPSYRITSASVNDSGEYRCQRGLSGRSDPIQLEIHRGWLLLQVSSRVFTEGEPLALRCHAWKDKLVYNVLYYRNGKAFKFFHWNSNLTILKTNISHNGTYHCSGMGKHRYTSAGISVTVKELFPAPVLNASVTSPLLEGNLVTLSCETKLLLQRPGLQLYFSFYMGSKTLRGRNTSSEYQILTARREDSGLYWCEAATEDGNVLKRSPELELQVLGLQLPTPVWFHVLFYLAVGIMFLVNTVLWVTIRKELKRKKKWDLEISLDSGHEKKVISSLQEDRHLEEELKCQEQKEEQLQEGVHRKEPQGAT", "assay": "cell binding, FcγR-engineered HEK293 cells"}, "FcγR2B": {"biological_target": "T7, FcγR2B (human, UniProt P31994 43-310)", "T7 construct": "whole, on cells", "T7 sequence (looked up)": "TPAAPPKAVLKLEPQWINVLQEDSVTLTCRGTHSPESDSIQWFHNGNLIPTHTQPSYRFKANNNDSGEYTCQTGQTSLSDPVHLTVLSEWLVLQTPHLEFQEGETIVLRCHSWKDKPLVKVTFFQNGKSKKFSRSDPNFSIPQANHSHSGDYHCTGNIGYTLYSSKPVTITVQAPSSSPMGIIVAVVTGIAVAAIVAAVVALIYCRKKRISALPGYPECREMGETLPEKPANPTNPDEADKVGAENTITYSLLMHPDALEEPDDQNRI", "assay": "cell binding, FcγR-engineered HEK293 cells"}, "mouse SIRPα on cells [7]": {"biological_target": "T8, mouse SIRPα on cells (mouse, UniProt P97797 32-513)", "T8 construct": "whole, on cells; also called mouse SIRPα-CHO-K1; Ms SIRPα-CHO-K1", "T8 sequence (looked up)": "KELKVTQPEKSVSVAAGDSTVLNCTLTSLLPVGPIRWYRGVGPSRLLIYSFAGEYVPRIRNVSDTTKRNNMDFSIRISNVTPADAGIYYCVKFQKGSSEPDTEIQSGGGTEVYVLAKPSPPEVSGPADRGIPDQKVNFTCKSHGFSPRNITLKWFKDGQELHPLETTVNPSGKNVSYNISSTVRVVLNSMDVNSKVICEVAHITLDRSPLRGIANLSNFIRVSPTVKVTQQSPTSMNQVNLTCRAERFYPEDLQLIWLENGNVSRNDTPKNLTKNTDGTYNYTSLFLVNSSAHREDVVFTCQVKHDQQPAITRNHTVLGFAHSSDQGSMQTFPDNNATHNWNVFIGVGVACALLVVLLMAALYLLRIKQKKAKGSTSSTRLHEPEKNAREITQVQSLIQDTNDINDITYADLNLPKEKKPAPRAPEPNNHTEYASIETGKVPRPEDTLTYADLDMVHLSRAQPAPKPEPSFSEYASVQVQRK", "assay": "flow cytometry, C57BL/6-CD11b+ Cell Binding"}, "mouse SIRPα on cells [8]": {"biological_target": "T8, mouse SIRPα on cells", "assay": "flow cytometry competition on C57/BL6 macrophages, competitor mCD47-hFc 6.7 nM, antibody at 0.5 nM or more"}, "mouse SIRPα on cells [9]": {"biological_target": "T8, mouse SIRPα on cells", "assay": "cell binding, Ms SIRPα-CHO-K1 cells, 100 nM antibody"}, "NOD/SCID mouse SIRPα-Fc": {"biological_target": "T9, NOD/SCID mouse SIRPα-Fc (mouse (NOD/SCID))", "T9 construct": "a signal peptide may be part of the entry; also called NOD/SCID Ms SIRPα-Fc", "T9 sequence (chain, as listed by the source limits assumed)": "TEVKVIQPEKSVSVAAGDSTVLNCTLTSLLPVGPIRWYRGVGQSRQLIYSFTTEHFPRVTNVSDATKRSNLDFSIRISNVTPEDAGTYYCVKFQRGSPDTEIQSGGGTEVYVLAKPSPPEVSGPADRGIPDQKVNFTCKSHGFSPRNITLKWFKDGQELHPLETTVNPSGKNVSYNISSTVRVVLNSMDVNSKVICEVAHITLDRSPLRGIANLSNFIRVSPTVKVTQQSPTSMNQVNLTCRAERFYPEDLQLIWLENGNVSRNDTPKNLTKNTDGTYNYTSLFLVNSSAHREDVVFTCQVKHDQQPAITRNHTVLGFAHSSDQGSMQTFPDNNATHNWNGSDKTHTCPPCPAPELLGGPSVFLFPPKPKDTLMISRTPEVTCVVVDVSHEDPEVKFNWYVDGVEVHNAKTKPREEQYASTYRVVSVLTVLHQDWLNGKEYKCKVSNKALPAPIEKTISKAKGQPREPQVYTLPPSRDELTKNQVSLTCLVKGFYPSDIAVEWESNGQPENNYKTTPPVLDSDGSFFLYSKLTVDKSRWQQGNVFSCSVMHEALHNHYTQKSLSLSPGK", "assay": "BLI Octet, antigen-Fc on biosensor"}, "mouse SIRPα-Fc": {"biological_target": "T10, mouse SIRPα-Fc (mouse)", "T10 construct": "a signal peptide may be part of the entry; also called Ms; Ms SIRPα-Fc", "assay": "BLI Octet, antigen-Fc on biosensor"}, "mouse SIRPα on cells [10]": {"biological_target": "T8, mouse SIRPα on cells", "assay": "flow cytometry, C57/BL6 macrophages, anti-human Fc detection; C57/BL6 macrophages (whole cells), not SIRPα-CHO-K1"}}}
{"binder": "SIRPAB-12-K322A (antibody, human IgG1, kappa, human IgG1 with K322A) light: DIQMTQSPSSVSASVGDRVTITCRASQGISSWLAWYQQKPGKAPKLLIYAASNLQSGVPSRFSGSGSGTDFTLTISSLQPEDFATYYCQQGASFPITFGGGTKVEIKRTVAAPSVFIFPPSDEQLKSGTASVVCLLNNFYPREAKVQWKVDNALQSGNSQESVTEQDSKDSTYSLSSTLTLSKADYEKHKVYACEVTHQGLSSPVTKSFNRGEC heavy: not shown", "values": [{"measurement": "Kd", "setting": "[1]", "result": 0.424, "unit": "nM"}, {"measurement": "Kd", "setting": "[2]", "result": 0.351, "unit": "nM"}, {"measurement": "Kd", "setting": "[3]", "result": 2.08, "unit": "nM"}]}
{"binder": "SIRPAB-11-4PE (antibody, human IgG4 S228P, kappa, human IgG4 with S228P and L235E; also called SIRPAB-11-IgG4PE; SIRPAB-11-IgG4PE-AF647) light: DIQMTQSPSSVSASVGDRVTITCRASQGISSWLAWYQQKPGKAPKLLIYAASNLQSGVPSRFSGSGSGTDFTLTISSLQPEDFATYYCQQGASFPITFGGGTKVEIKRTVAAPSVFIFPPSDEQLKSGTASVVCLLNNFYPREAKVQWKVDNALQSGNSQESVTEQDSKDSTYSLSSTLTLSKADYEKHKVYACEVTHQGLSSPVTKSFNRGEC heavy: not shown", "values": [{"measurement": "EC50", "setting": "[4]", "result": 0.43, "unit": "nM"}, {"measurement": "EC50", "setting": "[5]", "result": 0.426, "unit": "nM"}, {"measurement": "EC50", "setting": "[6]", "result": 0.39, "unit": "nM"}, {"measurement": "EC50", "setting": "FcγR3A (CD16aV158)", "result": 2060, "unit": "nM"}, {"measurement": "EC50", "setting": "FcγR1 (CD64)", "result": 756, "unit": "nM"}, {"measurement": "EC50", "setting": "FcγR2B", "result": 5180, "unit": "nM"}]}
{"binder": "SIRPAB-21 with mouse IgG2a (antibody, V domains shown) VH: QVQLQESGPGLVKPSQTLSLTCTVSGGSISSGGYYWSWIRQHPGKGLEWIGAIYYSGPIYYNPSLKSRVTISVDTSKNQFSLKLSSVTAADTAVYYCSKEGYHSGMDVWGQGTTVTVSS VL: DIQMTQSPSSLSASVGDRVTITCQASDDISDYLNWYQQKPGKAPKLLIYDASNLETGVPSRFSGSGSGTDFTFTISSLQPEDIATYYCQQFAYLPWTFGGGTKVEIK", "values": [{"measurement": "EC50 (read off the curve)", "setting": "mouse SIRPα on cells [7]", "result": "~0.3", "unit": "nM"}, {"measurement": "percent of mCD47 binding blocked", "setting": "mouse SIRPα on cells [8]", "result": "> 90", "unit": "%"}]}
{"binder": "SIRPAB-17 (antibody, human IgG1, kappa, V domains shown) VH: QVQLQESGPGLVKPSQTLSLTCTVSGGSISSGGYYWSWIRQHPGKGLEWIGAIYYSGPIYYNPSLKSRVTISVDTSKNQFSLKLSSVTAADTAVYYCAREGYHSGMDVWGQGTTVTVSS VL: DIQMTQSPSSLSASVGDRVTITCQASQDISNYLNWYQQKPGKAPKLLIYDASNLATGVPSRFSGSGSGTDFTFTISSLQPEDIATYYCQQFAYLPWTFGGGTKVEIKR", "values": [{"measurement": "fold increase over background (100 nM)", "setting": "mouse SIRPα on cells [9]", "result": 449, "unit": "fold"}, {"measurement": "Kd", "setting": "NOD/SCID mouse SIRPα-Fc", "result": 152, "unit": "nM"}, {"measurement": "koff", "setting": "NOD/SCID mouse SIRPα-Fc", "result": 0.0228, "unit": "s⁻¹"}, {"measurement": "kon", "setting": "NOD/SCID mouse SIRPα-Fc", "result": 150000, "unit": "M⁻¹ s⁻¹"}, {"measurement": "Kd", "setting": "mouse SIRPα-Fc", "result": 17.3, "unit": "nM"}, {"measurement": "koff", "setting": "mouse SIRPα-Fc", "result": 0.00373, "unit": "s⁻¹"}, {"measurement": "kon", "setting": "mouse SIRPα-Fc", "result": 220000, "unit": "M⁻¹ s⁻¹"}]}
{"binder": "SIRPAB-21 (antibody, human IgG1, kappa, V domains shown) VH: QVQLQESGPGLVKPSQTLSLTCTVSGGSISSGGYYWSWIRQHPGKGLEWIGAIYYSGPIYYNPSLKSRVTISVDTSKNQFSLKLSSVTAADTAVYYCSKEGYHSGMDVWGQGTTVTVSS VL: DIQMTQSPSSLSASVGDRVTITCQASDDISDYLNWYQQKPGKAPKLLIYDASNLETGVPSRFSGSGSGTDFTFTISSLQPEDIATYYCQQFAYLPWTFGGGTKVEIKR", "values": [{"measurement": "fold increase over background (100 nM)", "setting": "mouse SIRPα on cells [9]", "result": 2440, "unit": "fold"}, {"measurement": "Kd", "setting": "NOD/SCID mouse SIRPα-Fc", "result": 5.43, "unit": "nM"}, {"measurement": "koff", "setting": "NOD/SCID mouse SIRPα-Fc", "result": 0.0019, "unit": "s⁻¹"}, {"measurement": "kon", "setting": "NOD/SCID mouse SIRPα-Fc", "result": 350000, "unit": "M⁻¹ s⁻¹"}, {"measurement": "Kd", "setting": "mouse SIRPα-Fc", "result": 1.46, "unit": "nM"}, {"measurement": "koff", "setting": "mouse SIRPα-Fc", "result": 0.000708, "unit": "s⁻¹"}, {"measurement": "kon", "setting": "mouse SIRPα-Fc", "result": 490000, "unit": "M⁻¹ s⁻¹"}]}
{"binder": "… ANTIBODY (SIRPα reference antibody with light chain SEQ ID NO:224 and heavy chain SEQ ID NO:225) (antibody, human IgG1, kappa, V domains shown) VH: EVQLQQSGAELVKPGASVKLSCTASGFNIKDYYIHWVQQRTEQGLEWIGRIDPEDGETKYAPKFQDKATITADTSSNTAYLHLSSLTSEDTAVYYCARWGAYWGQGTLVTVSA VL: QIVLTQSPAIMSASPGEKVTLTCSASSSVSSSYLYWYQQKPGSSPKLWIYSTSNLASGVPARFSGSGSGTSYSLTISSMEAEDAASYFCHQWSSYPRTFGAGTKLELKR", "values": [{"measurement": "Kd", "setting": "[1]", "result": 3.65, "unit": "nM"}, {"measurement": "Kd", "setting": "[2]", "result": 1.47, "unit": "nM"}, {"measurement": "Kd", "setting": "[3]", "result": 2.98, "unit": "nM"}]}
{"binder": "mCD47-hFc (Fc fusion, mouse, UniProt Q61735 19-140, looked up, not shown: a dimerising Fc or GST, also called recombinant mouse CD47) QLLFSNVNSIEFTSCNETVVIPCIVRNVEAQSTEEMFVKWKLNKSYIFIYDGNKNSTTTDQNFTSAKISVSDLINGIASLKMDKRDAMVGNYTCEVTELSREGKTVIELKNRTVSWFSPNEK", "values": [{"measurement": "EC50", "setting": "mouse SIRPα on cells [10]", "result": 6.7, "unit": "nM"}]}
